# Measurements as given in PMC7826288, “Dynamics of TRF1 organizing a single human telomere” (Nucleic Acids Research, 2020).
# B1: human TRF1(3-439) (natural protein, UniProt P54274 3-439, looked up)
# chain: EDVSSAAPSPRGCADGRDADPTEEQMAETERNDEEQFECQELLECQVQVGAPEEEEEEEEDAGLVAEAEAVAAGWMLDFLCLSLCRAFRDGRSEDFRRTRNSAEAIIHGLSSLTACQLRTIYICQFLTRIAAGKTLDAQFENDERITPLESALMIWGSIEKEHDKLHEEIQNLIKIQAIAVCMENGNFKEAEEVFERIFGDPNSHMPFKSKLLMIISQKDTFHSFFQHFSYNHMMEKIKSYVNYVLSEKSSTFLMKAAAKVVESKRTRTITSQDKPSGNDVEMETEANLDTRKSVSDKQSAVTESSEGTVSLLRSHKNLFLSKLQHGTQQQDLNKKERRVGTPQSTKKKKESRRATESRIPVSKSQPVTPEKHRARKRQAWLWEEDKNLRSGVRKYGEGNWSKILLHYKFNNRTSVMLKDRWRTMKKLKLISSDSED
# notes: also called TRF1 dimer; source: E. coli BL21(DE3), purified (Ni-NTA, 3C protease, HiTrap Heparin, Superdex 200)
# Target: the molecule itself
# Assay: SEC; Superdex 200 Increase 10/300 GL, 20 mM Tris-HCl (pH 8.0), 200 mM NaCl; molecular weight assessed against standard molecular markers
protein,measurement,value
B1,stoichiometry N,2
